From patent publication US20070248609A1 come the findings set out here.

In this assay the target is T1, Activin A (endogenous, mouse, released after LPS) (mouse) (UniProt Q04998).
T1 sequence (looked up): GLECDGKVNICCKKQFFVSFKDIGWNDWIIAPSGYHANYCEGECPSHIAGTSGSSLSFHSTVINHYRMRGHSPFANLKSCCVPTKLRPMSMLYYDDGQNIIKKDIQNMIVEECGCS
The assay can be described thus: cell-based or functional assay.

“Recombinant human follistatin-288 (from UniProt P19883 30-317)”: the IL-6 peak concentration in mice given 1 µg rhfollistatin-288 before LPS, against LPS alone was determined as 2 fold; the IL-6 release in mice given 0.5 µg follistatin before LPS (LPS alone ≈20000 pg/ml) was determined as 30000 pg/mL; the IL-6 release in mice given 0.5 µg follistatin before LPS, against LPS alone was 50%; the IL-6 release in mice given 1 µg follistatin before LPS (LPS alone ≈20000 pg/ml) came out at 50000 pg/mL. For the same substance, the IL-6 release in mice given 1 µg follistatin before LPS, against LPS alone was found to be 250%; the IL-6 release in mice given 2 µg follistatin before LPS (LPS alone ≈20000 pg/ml) stood at 20000 pg/mL; the TNFα release in plasma of mice given 1 µg rhfollistatin-288 30 min before LPS (% suppression) worked out at 50.
